Test results reported in publication PMC11659472 (Communications Biology, 2024).

Target: the molecule itself
Experiment: cryo-EM structure

B1: Roseospirillum parvum LH1 αβ-polypeptide pair (complex)
chain 1: not shown
chain 2: MATTENVTSSTGLTEAEAKEFHAVYSQSAAGFLAVCAVAHVLAWMWRPFWPGAEGWVMDTAQNLTFLA
stoichiometry N: 16
